In patent US20090215195A1:

Target: Human complement component C5 (human) (UniProt P01031)
Assay: cell-based or functional assay

**Q.** Which SET1 concentration at maximum survival of E. coli in human serum does the source give for “Recombinant SET1 (SSL7), allele from Staphylococcus aureus clinical isolate GL1” here?
**A.** Its SET1 concentration at maximum survival of E. coli in human serum is 2.1 nM.

**Q.** And the surviving E. coli cells in human serum, maximum level?
**A.** Its surviving E. coli cells in human serum, maximum level is 14%.
